Here are results for seven molecules from US20190241654A1 (published 2019).

“And” between values parts separate entries of the source, which are not always exact repeats. Identical values can stand only once.

The target of test [1] is T1, CD47 on CCRF-CEM cells (human, UniProt Q08722 19-323). In words: cell-based or functional assay.
Test [2] has as its target T1, CD47 on CCRF-CEM cells. In words: flow cytometry on antibody-opsonized CCRF-CEM cells, anti-human Alexa 647 secondary, median fluorescence, sigmoidal fit; Donor 1. Here is the method: (§1) Phagocytosis was assayed by serum starving the macrophages in incomplete AIM V media for two hours. During this incubation period, target cells (CCRF-CEM) from two donors (donor 1 and donor 2) were labeled with CSFE (Invitrogen, #C34554) at […] for 15 minutes at room temperature. Cells were rinsed twice with PBS (Hyclone, #SH30028.02) and resuspended at 8×10⁵/mL in AIM V media. Antibody dilutions were prepared at 0.01 ug/ml to 10 ug/ml in half log dilutions and then incubated with the target cell line for 10 minutes at room temperature (a small portion is retained for flow cytometric analysis/cell binding), after which 100 μL of target cell/antibody suspension was added to the macrophage plates. Samples were treated in triplicate and with appropriate isotype controls.
(§2) Samples were incubated for 30 minutes at room temperature, rinsed 2× and then resuspended in FACS buffer and analyzed on the Attune. The EC50 values refer to the concentration that gives half the maximum binding measured as median fluorescent intensity, and was determined by non-linear fit of a sigmoidal dose response within the GraphPad Prism software.

Test [3] addresses T1, CD47 on CCRF-CEM cells. In words: flow cytometry on antibody-opsonized CCRF-CEM cells, anti-human Alexa 647 secondary, median fluorescence, sigmoidal fit; Donor 2. Here is the method:
as §1, §2
For orientation: Flow cytometry measures light scatter and fluorescence of single cells or particles in a stream.

Test [4] deals with T2, recombinant extracellular domain of CD47 (UniProt Q08722 19-139, limits assumed).
T2 construct: extracellular domain; Analyte flowed over the captured antibodies in SPR; also called CD47-ECD
T2 sequence (Q08722 19-139 limits assumed): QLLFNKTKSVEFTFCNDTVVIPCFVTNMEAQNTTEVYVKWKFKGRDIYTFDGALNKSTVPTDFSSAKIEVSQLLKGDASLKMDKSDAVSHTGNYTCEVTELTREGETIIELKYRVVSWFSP
In words: SPR; antibody captured on anti-human Fc, CD47-ECD flowed 0-100 nM; 1:1 Langmuir. Here is the method:
The binding kinetics of anti-CD47 antibodies to the recombinant extracellular domain of CD47 were determined by using surface Plasmon resonance (SPR, MASS-1, Sierra Sensors; T200, Biacore, GE Healthcare Life Sciences). Anti-human Fc (P/N: BR-1008-39 (GE Healthcare Life Sciences)) was immobilized on a High Capacity Amine chip (P/N: SPR-AS-HCA, Sierra sensors) or CM5-S Chip (GE Healthcare Life Sciences). CD47 antibodies were captured on Human IgG FC and CD47-ECD was flowed over the surface at various concentrations ranging from zero (for double referencing) to 100 nM. In order to determine KD's, antibodies were ranked using a 1:1 Langmuir model.
For orientation: Surface plasmon resonance follows binding to a sensor surface in real time, without labels.

T1 sequence (Q08722 19-323): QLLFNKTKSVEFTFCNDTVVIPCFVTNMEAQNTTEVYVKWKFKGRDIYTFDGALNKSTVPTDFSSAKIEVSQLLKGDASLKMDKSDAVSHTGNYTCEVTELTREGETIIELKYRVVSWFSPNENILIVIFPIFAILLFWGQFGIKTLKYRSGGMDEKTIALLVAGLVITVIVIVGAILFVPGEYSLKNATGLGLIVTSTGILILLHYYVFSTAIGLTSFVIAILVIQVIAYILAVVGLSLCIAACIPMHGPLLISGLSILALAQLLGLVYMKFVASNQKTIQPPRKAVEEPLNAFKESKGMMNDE

B1: Ab356/Ab1120 (HC Ab356, LC Ab1120) anti-CD47 antibody (antibody, V domains shown)
VH: QMQLVQSGAEVKKPGSSVKVSCKASGFNIKDYYLHWVRQAPGKGLEWMGWIDPDQGDTEYAQKFQGRVTITRDRSTSTAYMELRSLRAEDTAVYYCNAAYGSSSYPMDYWGQGTTVTVSS
VL: NIQMTQSPSSLSASVGDRVTITCRASQDIHRYLSWFQQKPGKVPKHLIYRYVRFVDGVPSRFSGSGSGTEFTLTISSLQPEDFATYYCLQYDEFPYTFGGGTKVEIK
notes: FR and CDR L2 variant of AbParental
One may read the EC50 as the midpoint of the concentration-response curve. A high value points to weaker potency. On to B1, for which, in the test with CD47 on CCRF-CEM cells [1], the “Phagocytosis EC50 (ug/mL), Donor 1” value worked out at 0.68 µg/mL and the “Phagocytosis EC50 (ug/mL), Donor 2” value is 1.82 µg/mL. This molecule showed an EC50 with CD47 on CCRF-CEM cells [2] of 0.17 µg/mL. The molecule also showed an EC50 with CD47 on CCRF-CEM cells [3] of 0.16 µg/mL.

B2: AbParental (parental anti-CD47 antibody) (antibody, human IgG4 S228P, kappa, V domains shown)
VH: QMQLVQSGAEVKKTGSSVKVSCKASGFNIKDYYLHWVRQAPGQALEWMGWIDPDQGDTEYAQKFQDRVTITRDRSMSTAYMELSSLRSEDTAMYYCNAAYGSSSYPMDYWGQGTTVTVSS
VL: NIQMTQSPSAMSASVGDRVTITCKASQDIHRYLSWFQQKPGKVPKHLIYRANRLVSGVPSRFSGSGSGTEFTLTISSLQPEDFATYYCLQYDEFPYTFGGGTKVEIKR
notes: also called Parental LC-HC; parental antibody
A word on the Kd: it is the equilibrium constant for the complex coming apart. As a reminder, the koff is a measure of how fast the partners let go of each other. Broadly, the kon is the rate constant with which the complex forms. As to B2, in test [4], the Kd was determined as 0.236 nM, the koff was 0.00187 s⁻¹ and the kon turned out to be 7.94e+06 M⁻¹ s⁻¹.

B3: Ab1119/Ab356 (antibody, V domains shown)
VH: QMQLVQSGAEVKKPGSSVKVSCKASGFNIKDYYLHWVRQAPGKGLEWMGWIDPDQGDTEYAQKFQGRVTITRDRSTSTAYMELRSLRAEDTAVYYCNAAYGSSSYPMDYWGQGTTVTVSS
VL: NIQMTQSPSSLSASVGDRVTITCRASQDIHRYLSWFQQKPGKVPKHLIYRANRLVSGVPSRFSGSGSGTEFTLTISSLQPEDFATYYCLQYDEFPYTFGGGTKVEIK
notes: Variant of AbParental; also called LC Ab1119 / HC Ab356
Turning to B3, in test [4], the Kd was 0.635 nM and 0.599 nM; the koff is 0.00647 s⁻¹ and 0.0059 s⁻¹; the kon is 1.02e+07 M⁻¹ s⁻¹ and 9.85e+06 M⁻¹ s⁻¹.

B4: Ab356/Ab1121 (HC Ab356, LC Ab1121) anti-CD47 antibody (antibody, V domains shown)
VH: QMQLVQSGAEVKKPGSSVKVSCKASGFNIKDYYLHWVRQAPGKGLEWMGWIDPDQGDTEYAQKFQGRVTITRDRSTSTAYMELRSLRAEDTAVYYCNAAYGSSSYPMDYWGQGTTVTVSS
VL: NIQMTQSPSSLSASVGDRVTITCRASQDIHRYLSWFQQKPGKVPKHLIYRYIRFVDGVPSRFSGSGSGTEFTLTISSLQPEDFATYYCLQYDEFPYTFGGGTKVEIK
notes: FR and CDR L2 variant of AbParental; The label order is HC/LC although the head says 'LC/HC'; the row in running number order (r442) is used
For B4, in the test with CD47 on CCRF-CEM cells [1], the “Phagocytosis EC50 (ug/mL), Donor 1” value is 0.48 µg/mL. In the test with CD47 on CCRF-CEM cells [1], the “Phagocytosis EC50 (ug/mL), Donor 2” value stood at 1.29 µg/mL. In addition, the EC50 stood at 0.19 µg/mL with CD47 on CCRF-CEM cells [2] and 0.16 µg/mL with CD47 on CCRF-CEM cells [3].

B5: Ab356/Ab1129 (HC Ab356, LC Ab1129) anti-CD47 antibody (antibody, V domains shown)
VH: QMQLVQSGAEVKKPGSSVKVSCKASGFNIKDYYLHWVRQAPGKGLEWMGWIDPDQGDTEYAQKFQGRVTITRDRSTSTAYMELRSLRAEDTAVYYCNAAYGSSSYPMDYWGQGTTVTVSS
VL: NIQMTQSPSSLSASVGDRVTITCRASQDIHRYLSWFQQKPGKVPKHLIYRHIRFVDGVPSRFSGSGSGTEFTLTISSLQPEDFATYYCLQYDEFPYTFGGGTKVEIK
notes: FR and CDR L2 variant of AbParental; The label order is HC/LC although the head says 'LC/HC'; r466 is used
As for B5, in the test with CD47 on CCRF-CEM cells [1], the “Phagocytosis EC50 (ug/mL), Donor 1” value came to 12.8 µg/mL. Further, a half-maximal effect with CD47 on CCRF-CEM cells [2] (EC50) was put at 0.16 µg/mL.

B6: Ab1119/Ab387 (antibody, V domains shown)
VH: QMQLVQSGAEVKKPGSSVKVSCKASGFNIKDYYLHWVRQAPGKGLEWMGWIDPDQGDTEYAQKFQGRVTITRDRSTSTAYMELRSLRSEDTAVYYCNAAYGSSSYPMDYWGQGTLVTVSS
VL: NIQMTQSPSSLSASVGDRVTITCRASQDIHRYLSWFQQKPGKVPKHLIYRANRLVSGVPSRFSGSGSGTEFTLTISSLQPEDFATYYCLQYDEFPYTFGGGTKVEIK
notes: Variant of AbParental; also called LC Ab1119 / HC Ab387
Regarding B6, in test [4], the Kd is 0.556 nM and 0.529 nM; the off-rate constant (koff) was 0.00571 s⁻¹ and 0.00552 s⁻¹; the on-rate constant (kon) is 1.03e+07 M⁻¹ s⁻¹ and 1.04e+07 M⁻¹ s⁻¹.

B7: Ab356/Ab1122 (HC Ab356, LC Ab1122) anti-CD47 antibody (antibody, V domains shown)
VH: QMQLVQSGAEVKKPGSSVKVSCKASGFNIKDYYLHWVRQAPGKGLEWMGWIDPDQGDTEYAQKFQGRVTITRDRSTSTAYMELRSLRAEDTAVYYCNAAYGSSSYPMDYWGQGTTVTVSS
VL: NIQMTQSPSSLSASVGDRVTITCRASQDIHRYLSWFQQKPGKVPKHLIYRYERFVDGVPSRFSGSGSGTEFTLTISSLQPEDFATYYCLQYDEFPYTFGGGTKVEIK
notes: FR and CDR L2 variant of AbParental; The label order is HC/LC although the head says 'LC/HC'; r445 is used
B7: in the test with CD47 on CCRF-CEM cells [1], the “Phagocytosis EC50 (ug/mL), Donor 1” value was 1.07 µg/mL and the “Phagocytosis EC50 (ug/mL), Donor 2” value is 1.83 µg/mL. For the same molecule, in the test with CD47 on CCRF-CEM cells [2], the EC50 amounted to 0.17 µg/mL. This molecule also returned an EC50 with CD47 on CCRF-CEM cells [3] of 0.22 µg/mL.
